The results in this text go back to patent US20250352667A1.

The target in assay [1] is KEAP1 (wild-type full-length), His-tagged (human) (UniProt Q14145). Description: AlphaScreen; 38.4 nM FLAG-NRF2, 150 nM His-KEAP1; wild type set to 100%.
For assay [2] the target is unchanged. The experiment in a line: AlphaScreen; 9.6 nM FLAG-NRF2, 150 nM His-KEAP1; Rep 1; control for I28V.
Assay [3] has the same target. The experiment in a line: AlphaScreen; 2.4 nM FLAG-NRF2, 150 nM His-KEAP1; Rep 1; control for I86V. In general terms: Alpha assays give light when donor and acceptor beads are brought close together.
Assay [4] shares this target. Description: AlphaScreen; 153.6 nM FLAG-NRF2, 150 nM His-KEAP1; Rep 2; control for I86V.
Assay [5] has the same target. Description: AlphaScreen; 19.2 nM FLAG-NRF2, 150 nM His-KEAP1 (same value as in Table 26).
The target is the same in assay [6]. Description: AlphaScreen; 9.6 nM FLAG-NRF2, 150 nM His-KEAP1; Repeat 2 (same value as in Table 26).
Assay [7] shares this target. Description: AlphaScreen; NRF2 wt isoform 1 38.4 nM, KEAP1 150 nM; set as the 100 % reference for I86V.
Assay [8] shares this target. The experiment in a line: AlphaScreen; 2.4 nM FLAG-NRF2, 150 nM His-KEAP1; signal against NRF2 only; control for I28V.
For assay [9] the target is unchanged. Description: AlphaScreen; 9.6 nM FLAG-NRF2, 150 nM His-KEAP1; signal against NRF2 only; control for I86V.
Assay [10] shares this target. Description: AlphaScreen; 38.4 nM FLAG-NRF2, 150 nM His-KEAP1; signal against NRF2 only; control for I28V.
The target is the same in assay [11]. Description: AlphaScreen; 614.4 nM FLAG-NRF2, 150 nM His-KEAP1; signal against NRF2 only; control for I28V.
Assay [12] shares this target. The experiment in a line: AlphaScreen; 614.4 nM FLAG-NRF2, 150 nM His-KEAP1; signal against NRF2 only; control for I86V.
For assay [13] the target is unchanged. Description: AlphaScreen; FLAG-NRF2 wt isoform 1 19.2 nM, His-KEAP1 150 nM; Rep 2; positive control for I86V.
The target is the same in assay [14]. Description: AlphaScreen; FLAG-NRF2 wt isoform 1 1228.8 nM, His-KEAP1 150 nM; Rep 2; positive control for Q75R.
Assay [15] shares this target. Description: AlphaScreen; FLAG-NRF2 wt isoform 1 19.2 nM, His-KEAP1 150 nM; Repeat 2; positive control for Q75R.
Assay [16] has the same target. The experiment in a line: AlphaScreen; NRF2 wt isoform 1 307.2 nM, KEAP1 150 nM; signal against NRF2-only control; control for Q75R.
Assay [17] has the same target. Description: AlphaScreen; NRF2 wt isoform 1 1228.8 nM, KEAP1 150 nM; signal against NRF2-only control; control for Q75R.
Assay [18] has the same target. The experiment in a line: AlphaScreen; FLAG-NRF2 Q75R 4.8 nM, His-KEAP1 150 nM; Rep 2.
Assay [19] has the same target. Description: AlphaScreen; FLAG-NRF2 Q75R 614.4 nM, His-KEAP1 150 nM; Rep 1.
The target is the same in assay [20]. The experiment in a line: AlphaScreen; NRF2 Q75R 153.6 nM, KEAP1 150 nM; signal against NRF2-only control.
The target is the same in assay [21]. The experiment in a line: AlphaScreen; FLAG-NRF2 I86V 9.6 nM, His-KEAP1 150 nM; Rep 1.
Assay [22] has the same target. The experiment in a line: AlphaScreen; FLAG-NRF2 I86V 1228.8 nM, His-KEAP1 150 nM; Rep 1.
Assay [23] shares this target. Description: AlphaScreen; NRF2 I86V 2.4 nM, KEAP1 150 nM; signal against NRF2-only control.
The target is the same in assay [24]. Description: AlphaScreen; NRF2 I86V 9.6 nM, KEAP1 150 nM; relative to wild-type NRF2 isoform 1 (100 %).
The target is the same in assay [25]. Description: AlphaScreen; 9.6 nM FLAG-NRF2, 150 nM His-KEAP1; Rep 1.
Assay [26] shares this target. The experiment in a line: AlphaScreen; 1228.8 nM FLAG-NRF2, 150 nM His-KEAP1; Rep 2.
The target is the same in assay [27]. The experiment in a line: AlphaScreen; 2.4 nM FLAG-NRF2, 150 nM His-KEAP1; signal against NRF2 only.

Chain of KEAP1 (wild-type full-length), His-tagged (human) (Q14145 2-624 limits assumed): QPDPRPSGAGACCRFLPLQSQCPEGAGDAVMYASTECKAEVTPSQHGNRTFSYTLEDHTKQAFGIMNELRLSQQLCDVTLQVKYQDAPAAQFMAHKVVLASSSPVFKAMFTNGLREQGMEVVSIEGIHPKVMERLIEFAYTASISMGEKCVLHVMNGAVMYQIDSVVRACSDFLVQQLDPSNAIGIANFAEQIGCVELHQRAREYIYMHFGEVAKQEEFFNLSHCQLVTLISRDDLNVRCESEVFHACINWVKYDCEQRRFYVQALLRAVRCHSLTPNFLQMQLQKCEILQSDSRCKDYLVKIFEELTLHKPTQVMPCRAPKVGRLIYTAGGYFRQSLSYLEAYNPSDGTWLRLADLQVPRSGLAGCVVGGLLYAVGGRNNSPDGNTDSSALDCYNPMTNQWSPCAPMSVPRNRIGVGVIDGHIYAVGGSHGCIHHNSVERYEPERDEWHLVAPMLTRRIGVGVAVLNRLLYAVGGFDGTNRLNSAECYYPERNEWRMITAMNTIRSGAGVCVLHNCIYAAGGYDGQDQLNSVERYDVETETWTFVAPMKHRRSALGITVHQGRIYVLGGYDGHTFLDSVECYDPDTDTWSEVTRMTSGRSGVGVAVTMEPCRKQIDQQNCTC

B1: NRF2 isoform 1 (wild-type full-length), FLAG-tagged (protein)
chain: MMDLELPPPGLPSQQDMDLIDILWRQDIDLGVSREVFDFSQRRKEYELEKQKKLEKERQEQLQKEQEKAFFAQLQLDEETGEFLPIQPAQHIQSETSGSANYSQVAHIPKSDALYFDDCMQLLAQTFPFVDDNEVSSATFQSLVPDIPGHIESPVFIATNQAQSPETSVAQVAPVDLDGMQQDIEQVWEELLSIPELQCLNIENDKLVETTMVPSPEAKLTEVDNYHFYSSIPSMEKEVGNCSPHFLNAFEDSFSSILSTEDPNQLTVNSLNSDATVNTDFGDEFYSAFIAEPSISNSMPSPATLSHSLSELLNGPIDVSDLSLCKAFNQNHPESTAEFNDSDSGISLNTSPSVASPEHSVESSSYGDTLLGLSDSEVEELDSAPGSVKQNGPKTPVHSSGDMVQPLSPSQGQSTHVHDAQCENTPEKELPVSPGHRKTPFTKDKHSSRLEAHLTRDELRAKALHIPFPVEKIINLPVVDFNEMMSKEQFNEAQLALIRDIRRRGKNKVAAQNCRKRKLENIVELEQDLDHLKDEKEKLLKEKGENDKSLHLLKKQLSTLYLEVFSMLRDEDGKPYSPSEYSLQQTRDGNVFLVPKSKKPDVKKN
In [1], B1 came in with a Binding Percentage (%) of 100%. The A-counts in assay [2] was 1590 A-counts; in [3] it was 860 A-counts; in assay [4], 3090 A-counts; in assay [6], 1640 A-counts. Besides, the S/N in [5] stood at 4.2; in assay [8], 2.2; in assay [9], 3.6; in [10], 3.6; in assay [11], 1; in [12], 1.1. The S/N in assay [16] was found to be 1.4; in assay [17], 0.9. This molecule registered a Binding Percentage in assay [7] of 100%. Also, the A-counts (NRF2 plus KEAP1) in assay [13] stood at 3270 A-counts; in assay [14] it was 1360 A-counts; in assay [15], 1480 A-counts.

B2: NRF2 isoform 1 (Q75R full-length), FLAG-tagged (protein)
chain: MMDLELPPPGLPSQQDMDLIDILWRQDIDLGVSREVFDFSQRRKEYELEKQKKLEKERQEQLQKEQEKAFFAQLRLDEETGEFLPIQPAQHIQSETSGSANYSQVAHIPKSDALYFDDCMQLLAQTFPFVDDNEVSSATFQSLVPDIPGHIESPVFIATNQAQSPETSVAQVAPVDLDGMQQDIEQVWEELLSIPELQCLNIENDKLVETTMVPSPEAKLTEVDNYHFYSSIPSMEKEVGNCSPHFLNAFEDSFSSILSTEDPNQLTVNSLNSDATVNTDFGDEFYSAFIAEPSISNSMPSPATLSHSLSELLNGPIDVSDLSLCKAFNQNHPESTAEFNDSDSGISLNTSPSVASPEHSVESSSYGDTLLGLSDSEVEELDSAPGSVKQNGPKTPVHSSGDMVQPLSPSQGQSTHVHDAQCENTPEKELPVSPGHRKTPFTKDKHSSRLEAHLTRDELRAKALHIPFPVEKIINLPVVDFNEMMSKEQFNEAQLALIRDIRRRGKNKVAAQNCRKRKLENIVELEQDLDHLKDEKEKLLKEKGENDKSLHLLKKQLSTLYLEVFSMLRDEDGKPYSPSEYSLQQTRDGNVFLVPKSKKPDVKKN
Turning to B2, the A-counts (NRF2 plus KEAP1) stood at 819 A-counts in assay [18] and 855 A-counts in assay [19]. Besides, the S/N in [20] is 1.5.

B3: NRF2 isoform 1 (I86V full-length), FLAG-tagged (protein)
chain: MMDLELPPPGLPSQQDMDLIDILWRQDIDLGVSREVFDFSQRRKEYELEKQKKLEKERQEQLQKEQEKAFFAQLQLDEETGEFLPVQPAQHIQSETSGSANYSQVAHIPKSDALYFDDCMQLLAQTFPFVDDNEVSSATFQSLVPDIPGHIESPVFIATNQAQSPETSVAQVAPVDLDGMQQDIEQVWEELLSIPELQCLNIENDKLVETTMVPSPEAKLTEVDNYHFYSSIPSMEKEVGNCSPHFLNAFEDSFSSILSTEDPNQLTVNSLNSDATVNTDFGDEFYSAFIAEPSISNSMPSPATLSHSLSELLNGPIDVSDLSLCKAFNQNHPESTAEFNDSDSGISLNTSPSVASPEHSVESSSYGDTLLGLSDSEVEELDSAPGSVKQNGPKTPVHSSGDMVQPLSPSQGQSTHVHDAQCENTPEKELPVSPGHRKTPFTKDKHSSRLEAHLTRDELRAKALHIPFPVEKIINLPVVDFNEMMSKEQFNEAQLALIRDIRRRGKNKVAAQNCRKRKLENIVELEQDLDHLKDEKEKLLKEKGENDKSLHLLKKQLSTLYLEVFSMLRDEDGKPYSPSEYSLQQTRDGNVFLVPKSKKPDVKKN
On to B3, for which the A-counts (NRF2 plus KEAP1) in [21] is 2730 A-counts; in [22], 1750 A-counts. The molecule further returned a S/N in [23] of 2.6. Besides, in assay [24], the Binding Percentage was 99.1%.

B4: NRF2 isoform 1 (I28V full-length), FLAG-tagged (protein)
chain: MMDLELPPPGLPSQQDMDLIDILWRQDVDLGVSREVFDFSQRRKEYELEKQKKLEKERQEQLQKEQEKAFFAQLQLDEETGEFLPIQPAQHIQSETSGSANYSQVAHIPKSDALYFDDCMQLLAQTFPFVDDNEVSSATFQSLVPDIPGHIESPVFIATNQAQSPETSVAQVAPVDLDGMQQDIEQVWEELLSIPELQCLNIENDKLVETTMVPSPEAKLTEVDNYHFYSSIPSMEKEVGNCSPHFLNAFEDSFSSILSTEDPNQLTVNSLNSDATVNTDFGDEFYSAFIAEPSISNSMPSPATLSHSLSELLNGPIDVSDLSLCKAFNQNHPESTAEFNDSDSGISLNTSPSVASPEHSVESSSYGDTLLGLSDSEVEELDSAPGSVKQNGPKTPVHSSGDMVQPLSPSQGQSTHVHDAQCENTPEKELPVSPGHRKTPFTKDKHSSRLEAHLTRDELRAKALHIPFPVEKIINLPVVDFNEMMSKEQFNEAQLALIRDIRRRGKNKVAAQNCRKRKLENIVELEQDLDHLKDEKEKLLKEKGENDKSLHLLKKQLSTLYLEVFSMLRDEDGKPYSPSEYSLQQTRDGNVFLVPKSKKPDVKKN
For the molecule B4, the values for the A-counts in assay [25] and in [26] were 1570 A-counts and 1030 A-counts, respectively. The molecule also had a S/N in [27] of 2.2.
